Experimental data as given in patent US20260285970 (published 2026).
Positions count from the first letter of the chain named. Each block holds one binder with its values, some of them ahead of it.

Experiments:
Test in all cases: ELISA
IL-2 = IL-2 (UniProt P60568)
IL-17 = target: IL-17
IL-4 = target: T1, IL-4 (UniProt P05112)
T1 chain: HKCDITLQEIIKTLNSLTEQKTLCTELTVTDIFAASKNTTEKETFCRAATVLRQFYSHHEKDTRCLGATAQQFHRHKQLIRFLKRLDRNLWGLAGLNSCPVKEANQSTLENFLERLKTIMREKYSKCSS

BSA = BSA (bovine, UniProt P02769)
BSA, sequence (P02769 25-607): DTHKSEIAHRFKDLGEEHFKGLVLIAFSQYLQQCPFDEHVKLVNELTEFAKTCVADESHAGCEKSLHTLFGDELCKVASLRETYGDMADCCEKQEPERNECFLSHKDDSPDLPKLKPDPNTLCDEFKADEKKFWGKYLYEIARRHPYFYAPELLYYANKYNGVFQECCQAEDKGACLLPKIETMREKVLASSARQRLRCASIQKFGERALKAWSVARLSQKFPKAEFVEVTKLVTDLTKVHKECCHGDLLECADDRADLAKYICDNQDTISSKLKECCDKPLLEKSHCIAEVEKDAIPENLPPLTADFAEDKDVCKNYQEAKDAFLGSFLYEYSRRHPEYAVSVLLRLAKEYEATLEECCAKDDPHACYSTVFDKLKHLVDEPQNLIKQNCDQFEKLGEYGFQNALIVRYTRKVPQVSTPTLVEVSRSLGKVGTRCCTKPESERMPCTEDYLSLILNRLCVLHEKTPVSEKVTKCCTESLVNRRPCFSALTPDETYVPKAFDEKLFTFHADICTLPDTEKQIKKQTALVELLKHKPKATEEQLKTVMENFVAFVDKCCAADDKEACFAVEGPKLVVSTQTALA

IL-17, sequence (chain, as listed by the source): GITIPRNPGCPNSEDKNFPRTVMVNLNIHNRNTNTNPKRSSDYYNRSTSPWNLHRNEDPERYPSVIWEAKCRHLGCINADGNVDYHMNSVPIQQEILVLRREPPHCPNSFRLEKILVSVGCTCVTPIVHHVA
IL-2, sequence (P60568 21-153): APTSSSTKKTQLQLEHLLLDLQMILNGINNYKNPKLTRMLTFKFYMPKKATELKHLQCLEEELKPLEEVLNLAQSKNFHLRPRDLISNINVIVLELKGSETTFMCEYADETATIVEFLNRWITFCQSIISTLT

binding result (IL-2): no binding | binding result (IL-17): no binding
B1: BDG33.025 (antibody, V domains shown)
VH: QMQLVESGGGVVQPGRSLRLSCAASGFTFRTYGMHWVRQAPGKGLEWVADIWYDGSNKHYADSVKGRFTITRDNSKNTLNLQMNSLRAEDTAVYYCARAPQWYLVAEPFDLWGQGTMVTVSS
VL: SYVLTQPPSVSVAPGQTARITCGGNLIGSKLVHWYQQKPGQAPVLVVYDDSDRPSLIPERFSGSNSGNTATLTISRVEAGDEADYYCQVWDSSSDGVVFGGGTKLTVL

binding result (IL-4): no binding | binding result (IL-2): no binding | binding result (IL-17): no binding | binding result (BSA): no binding
B2: BDG33.023 (antibody, V domains shown)
VH: B1 VH with T28A, D50V, K58T, V105S, P108A
VL: B1 VL with L56R, S92H, G96H
